± gives the standard deviation.

The data set in a line: protein stability index of a GFP-peptide fusion (GPS, HEK-293T) (PSI 1-6); higher = more stable.
Where [1] appears, read: treatment: DMSO, c terminus: a fixed tail appended.
Where [2] appears, read: treatment: MLN4924 1 uM, 8 h, c terminus: a fixed tail appended.
Setting [3] is: treatment: DMSO, c terminus: native.
The mark [4] stands for this setting: treatment: MLN4924 1 uM, 8 h, c terminus: native.
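Further: 24-mer peptide tiles fused after GFP, lentivirally expressed, FACS-sorted into six equal bins by GFP/DsRed ratio, decoded by Illumina sequencing, PSI is the read-weighted mean bin number.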

SLSLFGCTNIFYEEENPGGCEDEY [ZER1] returned a protein stability index under setting [1] of 3.97 ± 0.14 and a protein stability index under setting [2] of 4.06 ± 0.23.
Take ASSGQHHDFLSDLFSDDYGGKNCK [CEBPB]: the protein stability index is 4.54 ± 0.35 under setting [1] and 4.66 ± 0.45 under setting [2].
The corresponding values for LSEEEEDEEEEEEEEEEGRFYYSE [KCNA4] are 5.2 ± 0.16 and 5.19 ± 0.39.
On the same counts, the results for RMRLFGQRCQKCSWSQYEMPEFSS [RTP4] are 2.42 ± 0.52 and 2.2 ± 0.23.
Consider EFLGNRSVILNHMAREHAFNIGLP [ZNF277], for which the protein stability index reads like this: under setting [1], 2.21 ± 0.19; under setting [2], 2.26 ± 0.2.
With DMAGDWHWALRVTPGLGVVAVLLL [SPNS1], the protein stability index runs as follows: under setting [1], 2.82 ± 0.41; under setting [2], 2.5 ± 0.48.
On the same counts, the results for GYPLPKLDMNFSLENREEPWVKEL [ZNF449] are 3.53 ± 0.12 and 3.7 ± 0.2.
On the same counts, the results for AVAAATAAVEGSGGSGGGSHHHHQ [KCNA4] are 5.04 ± 0.33 and 5.07 ± 0.35.
For the sequence NGATDDSKTNLIVNYLPQNMTQDE [ELAVL3], the protein stability index under setting [1] is 5.08 ± 0.29 and the protein stability index under setting [2] turned out to be 5.21 ± 0.041.
The corresponding values for FLRSLRQMKQKVQSLYQEVFGRLR [NFE2L1] are 2.41 ± 0.59 and 1.7 ± 0.43.
As for SSSRGSSHCDSPSPQEDGQIMFDV [BNIP3L], the protein stability index amounted to 4.81 ± 0.26 under setting [1] and 4.91 ± 0.18 under setting [2].
For RRSISSSRSENVLSRLSLMAMPNG [PSD2], the protein stability index turned out to be 3.54 ± 0.17 under setting [1] and 3.56 ± 0.19 under setting [2].
On the same counts, the results for DKEGYNSIHYAAAYGHRQCLELVS [ANKRD44] are 2.42 ± 0.14 and 2.59 ± 0.21.
As to DDEDEEEEDADCYDDDDSGNEES [UBE2R2], the protein stability index came out at 5.57 ± 0.33 under setting [3] and 5.57 ± 0.084 under setting [4].
In turn, RDVYLPAGKWRSYKGELFDKTPVL [MYORG] gave a protein stability index under setting [1] of 2.32 ± 0.3 and a protein stability index under setting [2] of 2.51 ± 0.18.
For the sequence RLSKEWEDSKRWSKMDQLAKELTA [CHGA], the protein stability index was 3.18 ± 0.34 under setting [1] and 3.41 ± 0.66 under setting [2].
The corresponding values for PGGGAGMAAGFPYALRAYLGYQAV [CEBPB] are 2.71 ± 0.77 and 2.72 ± 0.41.
On the same counts, the results for KRNNFYIKIRPGEFEQFESTIGFK [EPB41L3] are 2.12 ± 0.52 and 2.46 ± 0.24.
For GKSPVNMVTVAMVAGQCEFAHILH [ZNF649], the protein stability index reads like this: under setting [1], 2.63 ± 0.63; under setting [2], 2.34 ± 0.62.
Regarding GGPGRQTTSPNVLWPTPGHLSPLV [ESR2], the protein stability index amounted to 2.97 ± 0.22 under setting [1] and 3.15 ± 0.048 under setting [2].
In the case of EMPKSSDFLIHPPERSDLTLYLIV [PCDHGC5], the protein stability index under setting [1] was 2.83 ± 0.47 and the protein stability index under setting [2] was 2.72 ± 0.3.
In the case of RQPVSFHRVKLTNSTLDPHGHLIL [TBX6], the protein stability index was found to be 2.27 ± 0.16 under setting [1] and 2.27 ± 0.34 under setting [2].
On the same counts, the results for AEKDRRLKKKHQLLEDARRKGMPF [PPFIA4] are 4.05 ± 0.29 and 4.29 ± 0.16.
As to PMQERRASFYACRLDKHLYVIGGR [KLHL14], the protein stability index came to 2.15 ± 0.49 under setting [1] and 2.23 ± 0.28 under setting [2].
The corresponding values for YSALSCTSDASFHPAFLPQRQAIK [KCNG1] are 2.78 ± 0.23 and 3.18 ± 0.19.
Consider SELTSLCQSVLEDFNLCLFYLPSS [SMG5], for which the protein stability index runs as follows: under setting [1], 2.65 ± 0.64; under setting [2], 2.42 ± 0.39.
Sequence KLLDELPIAKVMKDYLKHKFDDI [ASB7] returned a protein stability index under setting [3] of 2.37 ± 0.28 and a protein stability index under setting [4] of 2.66 ± 0.38.
Regarding MTESLEASEFLEQSMSQTRELLLD [RSPH3], the protein stability index came out at 4.9 ± 0.12 under setting [1] and 4.98 ± 0.32 under setting [2].
The corresponding values for DAFWWAVVSMTTVGYGDMYPVTIG [KCNA1] are 3.45 ± 0.23 and 3.33 ± 0.49.
AGPAGTGTPSLLRGKRGGHATNYR [EMID1]: the protein stability index runs as follows: under setting [1], 4.72 ± 0.49; under setting [2], 4.59 ± 0.22.
The corresponding values for KLLNITADPMDWSPSNVQKWLLWT [SPDEF] are 2.34 ± 0.46 and 2.22 ± 0.21.
In turn, HISTFINELDSGFRLLNLKNDSLR [TSN] returned a protein stability index under setting [1] of 2.23 ± 0.13 and a protein stability index under setting [2] of 2.1 ± 0.25.
The corresponding values for TKQRIQDQKVPYIFRDNQWVGFDD [CHIT1] are 3.49 ± 0.47 and 3.69 ± 0.4.
On the same counts, the results for EDEDPEEMPKSSDFLIHPPERSDL [PCDHGC5] are 5.41 ± 0.13 and 5.4 ± 0.24.
With TELRRSGSSRSPGSKARAEGRGPV [PLEKHN1], the protein stability index under setting [1] came to 4.84 ± 0.31 and the protein stability index under setting [2] is 4.96 ± 0.52.
Consider LSRVKAAALSERGQAEEELIKAKS [LRRC45], for which the protein stability index by setting is: under setting [1], 5.01 ± 0.19; under setting [2], 4.97 ± 0.061.
On the same counts, the results for LLSLVTFTFLSAKCLQGNADGDGG [PCDHGC5] are 3.46 ± 0.031 and 2.93 ± 0.44.
Regarding VPQPRPPGARTRAGAARVARWRRL [FBXO33], the protein stability index is, setting by setting: under setting [1], 4.39 ± 0.42; under setting [2], 4.76 ± 0.21.
On the same counts, the results for AHVNTLHSGTKRDPKEDVFQQNHL [PHTF1] are 4.31 ± 0.15 and 4.28 ± 0.18.
On the same counts, the results for NGNSYICKCSEGFVLAEDGRRCKK [MATN2] are 3.75 ± 0.28 and 4.1 ± 0.19.
On the same counts, the results for LDLSSSSQMSPLSLYGENSNSLSS [ATF6] are 4.01 ± 0.19 and 3.92 ± 0.26.
On to IVETVCIVWFSFEFVVRCFACPSQ [KCNA4], for which the protein stability index amounted to 3.04 ± 0.21 under setting [1] and 2.66 ± 0.18 under setting [2].
With WIEHSKLREINFKIVEFNPMVLKG [GLT8D2], the protein stability index under setting [1] came out at 2.16 ± 0.1 and the protein stability index under setting [2] is 2.35 ± 0.14.
On the same counts, the results for EIKDKDQLVLRTKEAFDTIQEQKV [SASS6] are 4.54 ± 0.25 and 4.53 ± 0.46.
On the same counts, the results for SYFSGQGSDTGASLKLASSELERL [JUNB] are 4.182 ± 0.04 and 4.427 ± 0.038.
Take KVLHEDKQTREQLHSISDSVLFLQ [TRIM29]: the protein stability index was 3.46 ± 0.16 under setting [1] and 3.58 ± 0.27 under setting [2].
Take RAASENSQDALRVVSTSGEQMKVY [IKZF1]: the protein stability index was found to be 4.26 ± 0.57 under setting [1] and 4.78 ± 0.29 under setting [2].
With VRQPILQYRWDMMHRLGEPQARMR [BEX1], the protein stability index under setting [1] is 2.95 ± 0.21 and the protein stability index under setting [2] is 3.22 ± 0.29.
The corresponding values for ERSLRLQARYHDTPYKPPAGRAAA [MYORG] are 3.55 ± 0.31 and 4.15 ± 0.11.
Turning to QEPQSPQKLNPGFDLAKGNAGKVN [PLAGL1], the protein stability index under setting [1] amounted to 5 ± 0.2 and the protein stability index under setting [2] was found to be 4.89 ± 0.39.
Take LCATHFGEPLEKVASVGNSRPTGQ [KISS1]: the protein stability index reads like this: under setting [1], 3.95 ± 0.4; under setting [2], 4.01 ± 0.23.
With EDQVVVNKAAVMVHQLSKKEASRH [CTNNB1], the protein stability index was 4.82 ± 0.25 under setting [1] and 4.8 ± 0.22 under setting [2].
The corresponding values for TETPLEGDFAWERVRGLGLPKLYL [CDKN1A] are 2.18 ± 0.15 and 2.57 ± 0.34.

Source of the values: the supplement of paper PMC10567573.
